B1: CIgG4F6A1(RS) (Fc fusion)
chain 1: GPPCPPCPAPEFLGGPSVFLFPPKPKDTLMISRTPEVTCVVVDVSQEDPEVQFNWYVDGVEVHNAKTKPREEQFNSTYRVVSVLTVLHQDWLNGKEYKCKVSNKGLPSSIEKTISKAKGQPREPQVYTLPPCQEEMTKNQVSLWCLVKGFYPSDIAVEWESNGQPENNYKTTPPVLDSDGSFFLYSRLTVDKSRWQEGNVFSCSVMHEALHNHYTQKSLSLSLGKRSDVQLQESGGGLVQAGGSLRLSCAASGLTFGSYDMGWYRQAPGKQRELVGRIRNDGITYYADSVKGRFTMSRDNAKNTVYLQMNSLKPEDTAVYYCAADGTGLGHYDYWGQGTQVTVS
chain 2: GPPCPPCPAPEFLGGPSVFLFPPKPKDTLMISRTPEVTCVVVDVSQEDPEVQFNWYVDGVEVHNAKTKPREEQFNSTYRVVSVLTVLHQDWLNGKEYKCKVSNKGLPSSIEKTISKAKGQPREPQVCTLPPSQEEMTKNQVSLSCAVKGFYPSDIAVEWESNGQPENNYKTTPPVLDSDGSFFLVSRLTVDKSRWQEGNVFSCSVMHEALHNHYTQKSLSLSLGKRSEVQLLESGGGLVQPGGSLRLSCAASGFTFGNYDMAWVRQAPGKRPEWVSSIDTGGDITHYADSVKGRFTISRDNAKNTLYLQMNSLRPEDTAVYWCATDEEYALGPNEFDYYGQGTLVTVSS
B2: CIgG4F5A1(G4S)3 (Fc fusion)
chain 1: GPPCPPCPAPEFLGGPSVFLFPPKPKDTLMISRTPEVTCVVVDVSQEDPEVQFNWYVDGVEVHNAKTKPREEQFNSTYRVVSVLTVLHQDWLNGKEYKCKVSNKGLPSSIEKTISKAKGQPREPQVYTLPPCQEEMTKNQVSLWCLVKGFYPSDIAVEWESNGQPENNYKTTPPVLDSDGSFFLYSRLTVDKSRWQEGNVFSCSVMHEALHNHYTQKSLSLSLGKGGGGSGGGGSGGGGSDVQLQESGGGLVQPGGSLRLSCAASGSIFSIDIMGWYRQAPGKQRELVATMPEGNYINYADSVKGRLTLSRDKGKNTVYLQLNSLKPEDTAVYYCYGFGVREGRGNVYWGQGTQVTVS
chain 2: GPPCPPCPAPEFLGGPSVFLFPPKPKDTLMISRTPEVTCVVVDVSQEDPEVQFNWYVDGVEVHNAKTKPREEQFNSTYRVVSVLTVLHQDWLNGKEYKCKVSNKGLPSSIEKTISKAKGQPREPQVCTLPPSQEEMTKNQVSLSCAVKGFYPSDIAVEWESNGQPENNYKTTPPVLDSDGSFFLVSRLTVDKSRWQEGNVFSCSVMHEALHNHYTQKSLSLSLGKGGGGSGGGGSGGGGSEVQLLESGGGLVQPGGSLRLSCAASGFTFGNYDMAWVRQAPGKRPEWVSSIDTGGDITHYADSVKGRFTISRDNAKNTLYLQMNSLRPEDTAVYWCATDEEYALGPNEFDYYGQGTLVTVSS
B3: NIgG4F6A1(RS) (Fc fusion)
chain 1: DVQLQESGGGLVQAGGSLRLSCAASGLTFGSYDMGWYRQAPGKQRELVGRIRNDGITYYADSVKGRFTMSRDNAKNTVYLQMNSLKPEDTAVYYCAADGTGLGHYDYWGQGTQVTVSRSGPPCPPCPAPEFLGGPSVFLFPPKPKDTLMISRTPEVTCVVVDVSQEDPEVQFNWYVDGVEVHNAKTKPREEQFNSTYRVVSVLTVLHQDWLNGKEYKCKVSNKGLPSSIEKTISKAKGQPREPQVYTLPPCQEEMTKNQVSLWCLVKGFYPSDIAVEWESNGQPENNYKTTPPVLDSDGSFFLYSRLTVDKSRWQEGNVFSCSVMHEALHNHYTQKSLSLSLGK
chain 2: EVQLLESGGGLVQPGGSLRLSCAASGFTFGNYDMAWVRQAPGKRPEWVSSIDTGGDITHYADSVKGRFTISRDNAKNTLYLQMNSLRPEDTAVYWCATDEEYALGPNEFDYYGQGTLVTVSSRSGPPCPPCPAPEFLGGPSVFLFPPKPKDTLMISRTPEVTCVVVDVSQEDPEVQFNWYVDGVEVHNAKTKPREEQFNSTYRVVSVLTVLHQDWLNGKEYKCKVSNKGLPSSIEKTISKAKGQPREPQVCTLPPSQEEMTKNQVSLSCAVKGFYPSDIAVEWESNGQPENNYKTTPPVLDSDGSFFLVSRLTVDKSRWQEGNVFSCSVMHEALHNHYTQKSLSLSLGK
B4: NIgG4F6A1(G4S)1 (Fc fusion)
chain 1: DVQLQESGGGLVQAGGSLRLSCAASGLTFGSYDMGWYRQAPGKQRELVGRIRNDGITYYADSVKGRFTMSRDNAKNTVYLQMNSLKPEDTAVYYCAADGTGLGHYDYWGQGTQVTVSGGGGSGPPCPPCPAPEFLGGPSVFLFPPKPKDTLMISRTPEVTCVVVDVSQEDPEVQFNWYVDGVEVHNAKTKPREEQFNSTYRVVSVLTVLHQDWLNGKEYKCKVSNKGLPSSIEKTISKAKGQPREPQVYTLPPCQEEMTKNQVSLWCLVKGFYPSDIAVEWESNGQPENNYKTTPPVLDSDGSFFLYSRLTVDKSRWQEGNVFSCSVMHEALHNHYTQKSLSLSLGK
chain 2: EVQLLESGGGLVQPGGSLRLSCAASGFTFGNYDMAWVRQAPGKRPEWVSSIDTGGDITHYADSVKGRFTISRDNAKNTLYLQMNSLRPEDTAVYWCATDEEYALGPNEFDYYGQGTLVTVSSGGGGSGPPCPPCPAPEFLGGPSVFLFPPKPKDTLMISRTPEVTCVVVDVSQEDPEVQFNWYVDGVEVHNAKTKPREEQFNSTYRVVSVLTVLHQDWLNGKEYKCKVSNKGLPSSIEKTISKAKGQPREPQVCTLPPSQEEMTKNQVSLSCAVKGFYPSDIAVEWESNGQPENNYKTTPPVLDSDGSFFLVSRLTVDKSRWQEGNVFSCSVMHEALHNHYTQKSLSLSLGK
B5: NIgG4F6A1(G4S)3 (Fc fusion)
chain 1: DVQLQESGGGLVQAGGSLRLSCAASGLTFGSYDMGWYRQAPGKQRELVGRIRNDGITYYADSVKGRFTMSRDNAKNTVYLQMNSLKPEDTAVYYCAADGTGLGHYDYWGQGTQVTVSGGGGSGGGGSGGGGSGPPCPPCPAPEFLGGPSVFLFPPKPKDTLMISRTPEVTCVVVDVSQEDPEVQFNWYVDGVEVHNAKTKPREEQFNSTYRVVSVLTVLHQDWLNGKEYKCKVSNKGLPSSIEKTISKAKGQPREPQVYTLPPCQEEMTKNQVSLWCLVKGFYPSDIAVEWESNGQPENNYKTTPPVLDSDGSFFLYSRLTVDKSRWQEGNVFSCSVMHEALHNHYTQKSLSLSLGK
chain 2: EVQLLESGGGLVQPGGSLRLSCAASGFTFGNYDMAWVRQAPGKRPEWVSSIDTGGDITHYADSVKGRFTISRDNAKNTLYLQMNSLRPEDTAVYWCATDEEYALGPNEFDYYGQGTLVTVSSGGGGSGGGGSGGGGSGPPCPPCPAPEFLGGPSVFLFPPKPKDTLMISRTPEVTCVVVDVSQEDPEVQFNWYVDGVEVHNAKTKPREEQFNSTYRVVSVLTVLHQDWLNGKEYKCKVSNKGLPSSIEKTISKAKGQPREPQVCTLPPSQEEMTKNQVSLSCAVKGFYPSDIAVEWESNGQPENNYKTTPPVLDSDGSFFLVSRLTVDKSRWQEGNVFSCSVMHEALHNHYTQKSLSLSLGK
B6: NIgG4F6A1(G4S)2 (Fc fusion)
chain 1: DVQLQESGGGLVQAGGSLRLSCAASGLTFGSYDMGWYRQAPGKQRELVGRIRNDGITYYADSVKGRFTMSRDNAKNTVYLQMNSLKPEDTAVYYCAADGTGLGHYDYWGQGTQVTVSGGGGSGGGGSGPPCPPCPAPEFLGGPSVFLFPPKPKDTLMISRTPEVTCVVVDVSQEDPEVQFNWYVDGVEVHNAKTKPREEQFNSTYRVVSVLTVLHQDWLNGKEYKCKVSNKGLPSSIEKTISKAKGQPREPQVYTLPPCQEEMTKNQVSLWCLVKGFYPSDIAVEWESNGQPENNYKTTPPVLDSDGSFFLYSRLTVDKSRWQEGNVFSCSVMHEALHNHYTQKSLSLSLGK
chain 2: EVQLLESGGGLVQPGGSLRLSCAASGFTFGNYDMAWVRQAPGKRPEWVSSIDTGGDITHYADSVKGRFTISRDNAKNTLYLQMNSLRPEDTAVYWCATDEEYALGPNEFDYYGQGTLVTVSSGGGGSGGGGSGPPCPPCPAPEFLGGPSVFLFPPKPKDTLMISRTPEVTCVVVDVSQEDPEVQFNWYVDGVEVHNAKTKPREEQFNSTYRVVSVLTVLHQDWLNGKEYKCKVSNKGLPSSIEKTISKAKGQPREPQVCTLPPSQEEMTKNQVSLSCAVKGFYPSDIAVEWESNGQPENNYKTTPPVLDSDGSFFLVSRLTVDKSRWQEGNVFSCSVMHEALHNHYTQKSLSLSLGK
B7: CIgG4F5A1(G4S)2 (Fc fusion)
chain 1: GPPCPPCPAPEFLGGPSVFLFPPKPKDTLMISRTPEVTCVVVDVSQEDPEVQFNWYVDGVEVHNAKTKPREEQFNSTYRVVSVLTVLHQDWLNGKEYKCKVSNKGLPSSIEKTISKAKGQPREPQVYTLPPCQEEMTKNQVSLWCLVKGFYPSDIAVEWESNGQPENNYKTTPPVLDSDGSFFLYSRLTVDKSRWQEGNVFSCSVMHEALHNHYTQKSLSLSLGKGGGGSGGGGSDVQLQESGGGLVQPGGSLRLSCAASGSIFSIDIMGWYRQAPGKQRELVATMPEGNYINYADSVKGRLTLSRDKGKNTVYLQLNSLKPEDTAVYYCYGFGVREGRGNVYWGQGTQVTVS
chain 2: GPPCPPCPAPEFLGGPSVFLFPPKPKDTLMISRTPEVTCVVVDVSQEDPEVQFNWYVDGVEVHNAKTKPREEQFNSTYRVVSVLTVLHQDWLNGKEYKCKVSNKGLPSSIEKTISKAKGQPREPQVCTLPPSQEEMTKNQVSLSCAVKGFYPSDIAVEWESNGQPENNYKTTPPVLDSDGSFFLVSRLTVDKSRWQEGNVFSCSVMHEALHNHYTQKSLSLSLGKGGGGSGGGGSEVQLLESGGGLVQPGGSLRLSCAASGFTFGNYDMAWVRQAPGKRPEWVSSIDTGGDITHYADSVKGRFTISRDNAKNTLYLQMNSLRPEDTAVYWCATDEEYALGPNEFDYYGQGTLVTVSS
B8: CIgG4F5A1(G4S)1 (Fc fusion)
chain 1: GPPCPPCPAPEFLGGPSVFLFPPKPKDTLMISRTPEVTCVVVDVSQEDPEVQFNWYVDGVEVHNAKTKPREEQFNSTYRVVSVLTVLHQDWLNGKEYKCKVSNKGLPSSIEKTISKAKGQPREPQVYTLPPCQEEMTKNQVSLWCLVKGFYPSDIAVEWESNGQPENNYKTTPPVLDSDGSFFLYSRLTVDKSRWQEGNVFSCSVMHEALHNHYTQKSLSLSLGKGGGGSDVQLQESGGGLVQPGGSLRLSCAASGSIFSIDIMGWYRQAPGKQRELVATMPEGNYINYADSVKGRLTLSRDKGKNTVYLQLNSLKPEDTAVYYCYGFGVREGRGNVYWGQGTQVTVS
chain 2: GPPCPPCPAPEFLGGPSVFLFPPKPKDTLMISRTPEVTCVVVDVSQEDPEVQFNWYVDGVEVHNAKTKPREEQFNSTYRVVSVLTVLHQDWLNGKEYKCKVSNKGLPSSIEKTISKAKGQPREPQVCTLPPSQEEMTKNQVSLSCAVKGFYPSDIAVEWESNGQPENNYKTTPPVLDSDGSFFLVSRLTVDKSRWQEGNVFSCSVMHEALHNHYTQKSLSLSLGKGGGGSEVQLLESGGGLVQPGGSLRLSCAASGFTFGNYDMAWVRQAPGKRPEWVSSIDTGGDITHYADSVKGRFTISRDNAKNTLYLQMNSLRPEDTAVYWCATDEEYALGPNEFDYYGQGTLVTVSS

Sequence of mixture of three Der p 2 specific recombinant human IgE clones H10, H12, P4E (human) (P01854 other isoform, or with tags, fused parts or gaps): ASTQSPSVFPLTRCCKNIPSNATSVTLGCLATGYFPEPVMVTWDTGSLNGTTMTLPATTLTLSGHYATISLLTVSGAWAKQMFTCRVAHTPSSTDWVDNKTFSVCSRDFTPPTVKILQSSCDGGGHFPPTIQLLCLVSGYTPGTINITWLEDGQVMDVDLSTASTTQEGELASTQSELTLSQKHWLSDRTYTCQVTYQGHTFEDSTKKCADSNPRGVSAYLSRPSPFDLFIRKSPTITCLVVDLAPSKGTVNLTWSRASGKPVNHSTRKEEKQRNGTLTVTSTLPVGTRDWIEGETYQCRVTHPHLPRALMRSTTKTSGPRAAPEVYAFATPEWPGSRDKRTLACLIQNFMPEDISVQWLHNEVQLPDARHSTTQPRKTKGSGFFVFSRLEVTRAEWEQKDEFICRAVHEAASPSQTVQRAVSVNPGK

The test has as its target mixture of three Der p 2 specific recombinant human IgE clones H10, H12, P4E (human) (UniProt P01854). Briefly: RBL-SX38 IgE displacement, FACS.
Turning to B1, the Max effect/effect 1 µM was 96%. With B2, the Max effect/effect 1 µM is 27%. Consider B3, for which the concentration giving a half-maximal response (EC50) was 3.2 nM and the Max effect/effect 1 µM turned out to be 26%.

In the case of B4, the EC50 is 2.2 nM and the Max effect/effect 1 µM was found to be 68%. For B5, the EC50 turned out to be 2.7 nM and the Max effect/effect 1 µM was determined as 87%. The matching figures for B6: 2.3 nM and 76%. For the molecule B7, the Max effect/effect 1 µM was determined as 25%. With B8, the Max effect/effect 1 µM worked out at 19%.

Broadly, the EC50 is the concentration giving half of the maximal effect.

For the origin of these results see patent US20250171562A1.
